{
  "source": "patent US20140024038A1",
  "about": "“METHOD AND REAGENTS FOR TREATING HEPATIC FIBROSIS AND INFLAMMATION” (Agency for Science, Technology and Research, priority 2006, published 2014)",
  "molecules": {"B1": {"name": "IFN-γ: recombinant rat interferon-γ purchased from BioVision, proinflammatory cytokine (protein, UniProt P01581 23-156, looked up)", "Interferon gamma": "QGTLIESLESLKNYFNSSSMDAMEGKSLLLDIWRNWQKDGNTKILESQIISFYLRLFEVLKDNQAISNNISVIESHLITNFFSNSKAKKDAFMSIAKFEVNNPQIQHKAVNELIRVIHQLSPESSLRKRKRSRC"}},
  "assay_type_in_all_cases": "cell-based, rat",
  "key": {"[1]": {"system": "HSC-T6 and activated HSCs", "test": "Immunofluorescence staining of CD74, RT1-B and cathepsin S proteins after IFN-γ treatment", "protocol": "The primary cells were grown in DMEM supplemented with 10% FBS on glass cover slips in 24-well culture plates prior to staining with antibodies against GFAP, SMAA, Desmin, RECA-1, ED-2, cathepsin S, RT1-B and CD74. At 60-70% confluence, the cells were washed once with sterile PBS and fixed with 4% paraformaldehyde (PFA) for 30 min at 4° C., followed by three washes with PBS. The cells were blocked and permeabilized in blocking solution (10% horse serum, 0.1% Triton X-100 in PBS) for 1 h at 37° C. The primary antibody was incubated in 10% blocking solution in PBS for 1 h at 37° C. followed by the secondary antibody under the same conditions. The primary antibody was omitted as a negative control. All images were taken with the LEICA DM IRB epifluorescence microscope using a 63× objective.\nFor induction experiments, IFN-γ was added to the cell culture at low confluence and the cells were cultivated further for different times depending on the targets to be stained (Cat S: 0, 4, 8, 24, 30 h; CD74: 0, 8, 24, 30 h; and RT1-B: 0, 24, 48 h). The presented images are representative for 3 experiments. Images were taken with a 40× objective. The fluorescence intensities from 3 to 7 different fields of vision of one representative experiment were quantified using the Image processing toolbox of the MATLAB platform (MathWorks, MA, USA). The following antibodies were used in the immunofluorescent staining. Anti-Cat S antibody (sc-6505) and anti-CD74 antibody (sc-5438) were from Santa Cruz Biotechnology (CA, USA); anti-RT1-B antibody (554926) was from BD Pharmingen (CA, USA); anti-GFAP antibody (Z 0334) was from Dako (CA, USA); and anti-SMAA-Cy3 (C 6198) and antidesmin antibody (D 8281) were from Sigma Chemicals (MO, USA). The anti-RECA-1 antibody (MCA970) and anti-ED-2 (CD163, MCA342R) were from Serotec (Oxford, UK). […]\nFor these experiments, we used the HSC-T6 and the activated HSCs. […] FIG. 5A and FIG. 5C show the immunofluorescence staining with anti-CD74 antibody after 30 h of IFN-γ induction for HSC-T6 and activated HSCs respectively (arrows depict the increase in fluorescence). […]"}, "[2]": {"system": "HSC-T6, activated HSCs and CFSC-3H", "test": "Cathepsin S activity measurement in HSCs after IFN-γ induction (BioVision kit, fluorogenic substrate)", "conditions": "IFN-γ 10 ng/ml, 48 h, P<0.05 vs untreated, FIG. 9", "protocol": "The cells were grown in cell culture medium containing 10% FBS in 75 cm^2 flasks. When the cells reached 50-60% confluence, IFN-γ was added at 10 ng/ml or omitted as untreated sample. The cells were harvested 48 h later and resuspended in CS cell lysis buffer. Cathepsin S activity was measured using a kit from BioVision (K1101-01) according to the provided manual. The final substrate concentration was 200 μM. Emitted fluorescence was measured using the Tecan Satire II (Tecan, Zurich, Switzerland) fluorescence plate reader at λex: 400 nm and λem: 505 nm. An AFC standard curve was used to calculate the released fluorophore in μM per μg protein per hour at 37° C.\nTo further investigate the induction of cathepsin S by IFN-γ, activity measurement was performed to directly detect cathepsin S in activated HSCs and both cell lines. FIG. 9 depicts the cathepsin S activity in activated HSCs and two different cell lines. The cells were grown in cell culture medium containing 10% FBS. When they reached 50-60% confluence, IFN-γ was added or omitted as control. The cells were harvested 48 h later and resuspended in CS cell lysis buffer. Cathepsin S activity was measured using a final substrate concentration of 200 μM. The specific activity is given in released fluorophore (AFC) in μM per μg protein per hour at 37° C. Data are presented as mean±SD*P<0.05."}, "[3]": {"system": "HSC-T6, activated HSCs and CFSC-3H", "test": "Real-time RT-PCR of Cat S, Cat L, CD74, CIITA and RT1-Dα after IFN-γ treatment", "protocol": "HSC-T6, CFSC-3H and activated HSCs were plated into 75 cm^2 culture flasks and grown overnight at conditions described above. The cells at a confluence of 60-70% were incubated with 10 ng/ml final concentration (equivalent to 100 U/ml) of recombinant rat IFN-γ for 2, 4, 8 and 24 h. The recombinant rat interferon-γ (IFN-γ) was purchased from BioVision (CA, USA). Total RNA was isolated using the NucleoSpin RNAII isolation kit (Macherey & Nagel, Germany) according to the manufacturer's protocol. The RNA concentration was measured with the ND-100 spectrophotometer (NanoDrop Technologies, DE, USA).\nReal-time PCR was performed using the ABI 7500 Real Time PCR System (Applied Biosystems, CA, USA). All reagents were purchased from this company unless otherwise stated. Total RNA was reverse transcribed to cDNA using reagents from the cDNA archive kit (4322171). 10 μg of total RNA was used in a total reverse transcription reaction volume of 100 μl. The RT step was performed for 10 min at 25° C. and 2 h at 37° C. In real-time PCR, 20× TaqMan gene expression assay mix of Cat S (Rn01534427_m1), Cat L (Rn00565793_m1), CD74 (Rn01491430_g1), CIITA (Rn01424723_g1) and RT1-Dα (Rn02346209g1), as well as 20×18s rRNA (4319413E) were used. For each real-time target, the reaction comprises of 3 μl cDNA, 0.5 μl 20×18S rRNA, 0.5 μl 20× TaqMan gene expression assay, 1 μl nuclease-free water and 5 μl TaqMan Universal PCR master mix (4352042). Conditions for PCR were 2 min 50° C., 10 min 95° C. and 40 cycles of 15 s 95° C. and 1 min 60° C. The comparative threshold method was used to quantitate relative changes of target mRNA (User Bulletin #2, Applied Biosystems). Relative quantitation of target mRNA was expressed as fold change in gene expression to control (untreated). The data presented are representative for three independent experiments with the same trend. The graphs were made using OrignPro 7 (OriginLab, MA, USA).\nFIG. 3A-3C depicts a quantitative analysis of the change in cathepsin S, CIITA, CD74 and RT1-Dα transcript level upon treatment with IFN-γ using real-time RT-PCR. After treatment with IFN-γ for 2, 4, 8 and 24 h, total RNA was extracted from the three different HSCs (activated HSC, HSC-T6 and CFSC-3H). The RNA was reverse transcribed and real-time RT-PCR was performed using TaqMan assays. The results were expressed as fold change in gene expression compared to the untreated samples using the relative quantification method for HSC-T6 (FIG. 3A), activated HSCs (FIG. 3B) and CFSC-3H (FIG. 3C)."}, "[4]": {"conditions": "IFN-γ 10 ng/ml, 2-24 h, HSC-T6, activated HSCs, CFSC-3H, vs untreated"}},
  "data": [
    {"molecule": "B1", "values": [
      {"measurement": "cathepsin S expression on the protein level", "setting": "[1]; IFN-γ 8 h, quantified fluorescence intensities, FIG. 8", "result": "significant increase"},
      {"measurement": "CD74 protein expression", "setting": "[1]; IFN-γ 30 h", "result": "significantly induced"},
      {"measurement": "RT1-B protein expression", "setting": "[1]; IFN-γ 48 h", "result": "induced"},
      {"measurement": "cathepsin S specific activity", "setting": "[2]", "result": "significant increase"},
      {"measurement": "CIITA type III transcript", "setting": "[3]; HSCs, data not shown", "result": "inducible"},
      {"measurement": "increase in CIITA transcript level in activated HSCs relative to HSC-T6 and CFSC-3H", "setting": "[3]; IFN-γ 10 ng/ml", "result": "> 20", "unit": "times"},
      {"measurement": "CIITA transcript level", "setting": "[3]; [4]", "result": "started to increase at an early time point"},
      {"measurement": "cathepsin S transcript level", "setting": "[3]; [4]", "result": "upregulated"},
      {"measurement": "mRNA expression of RT1-Dα and CD74", "setting": "[3]; IFN-γ 10 ng/ml, at a later time, indirectly through CIITA", "result": "induced"},
      {"measurement": "cathepsin L mRNA level", "setting": "[3]; IFN-γ 2, 4, 8 and 24 h, activated HSCs, HSC-T6, CFSC-3H, FIG. 4", "result": "no influence"},
      {"measurement": "cathepsin L mRNA expression in CFSC-3H", "setting": "[3]; after 8 h IFN-γ, CFSC-3H", "result": "decreased"}
    ]}
  ]
}
